# From patent publication US20140357577A1, “HIV Membrane Fusion Inhibitors” (priority 2011, published 2014)
# Starred links: 1 amine or outer side, 2 acyl side, 3 side chain; linkers in the order of their positions; H or OH if unused. Positions of bridges follow the written chain, without caps; N, C: chain ends. Non-standard residues stand in square brackets, D forms with d. Primed or numbered codes have the meaning given here. *: point of attachment. cholesteryl‑oxycarbonylmethyl = CC(C)CCC[C@@H](C)[C@H]1CC[C@H]2[C@@H]3CC=C4C[C@@H](OC(=O)C*)CC[C@]4(C)[C@H]3CC[C@]12C; B21″ = 2,7-dimethylnaphtyl linker joining two Cys, c1cc2ccc(C[*:2])cc2cc1C[*:1]; tBuAla = CC(C)(C)C[C@H](N)C(=O)O; Suc = O=C(CCC(=O)[*:2])[*:1]; hCys = N[C@@H](CCS)C(=O)O; Nva = CCC[C@H](N)C(=O)O; Abu = CC[C@H](N)C(=O)O; Hexanoyl = CCCCCC(=O)*; Pentanoyl = CCCCC(=O)*; B1 = not defined here; B3 = not defined here; Butyryl = CCCC(=O)*
# B1: peptide 48 (peptide)
# peptide: Ac-ACYLACIEALIRKAQEQQEKNEAALR-NH2
# modifications: linker 2-6 via B1; reading uncertain
# B2: peptide 42 (peptide)
# peptide: Hexanoyl-ECYLACIEELIRKAQEQQEKNEAALR-NH2
# modifications: linker 2-6 via B1; reading uncertain
# B3: peptide 46 (peptide)
# peptide: Suc-ACYLACIEALIRA[Nva]QEQQEKNEAALR-NH2
# modifications: linker 2-6 via B1; reading uncertain
# B4: peptide 26 (peptide)
# peptide: Suc-CYLACIEALIRAAQEQQEKNEAALR-NH2
# modifications: linker 1-5 via B1; reading uncertain
# B5: peptide 32 (peptide)
# peptide: Suc-ENYLRLIEELIRKAQEQQEKNEAALRGSGC(cholesteryl‑oxycarbonylmethyl)-NH2
# SMILES: CC[C@H](C)[C@H](NC(=O)[C@H](CC(C)C)NC(=O)[C@H](CCC(=O)O)NC(=O)[C@H](CCC(=O)O)NC(=O)[C@@H](NC(=O)[C@H](CC(C)C)NC(=O)[C@H](CCCNC(=N)N)NC(=O)[C@H](CC(C)C)NC(=O)[C@H](Cc1ccc(O)cc1)NC(=O)[C@H](CC(N)=O)NC(=O)[C@H](CCC(=O)O)NC(=O)CCC(=O)O)[C@@H](C)CC)C(=O)N[C@@H](CCCNC(=N)N)C(=O)N[C@@H](CCCCN)C(=O)N[C@@H](C)C(=O)N[C@@H](CCC(N)=O)C(=O)N[C@@H](CCC(=O)O)C(=O)N[C@@H](CCC(N)=O)C(=O)N[C@@H](CCC(N)=O)C(=O)N[C@@H](CCC(=O)O)C(=O)N[C@@H](CCCCN)C(=O)N[C@@H](CC(N)=O)C(=O)N[C@@H](CCC(=O)O)C(=O)N[C@@H](C)C(=O)N[C@@H](C)C(=O)N[C@@H](CC(C)C)C(=O)N[C@@H](CCCNC(=N)N)C(=O)NCC(=O)N[C@@H](CO)C(=O)NCC(=O)N[C@@H](CSCC(=O)O[C@H]1CC[C@@]2(C)C(=CC[C@H]3[C@@H]4CC[C@H]([C@H](C)CCCC(C)C)[C@@]4(C)CC[C@@H]32)C1)C(N)=O
# B6: peptide 37 (peptide)
# peptide: Ac-ECYLACIEELIRKAQEQQEKNEAALR-NH2
# modifications: linker 2-6 via B1; reading uncertain
# B7: peptide 40 (peptide)
# peptide: Butyryl-ECYLACIEELIRKAQEQQEKNEAALR-NH2
# modifications: linker 2-6 via B1; reading uncertain
# B8: peptide 36 (peptide)
# peptide: Suc-ACYLACIDELIAKAQEQQEKNEAALR-NH2
# modifications: linker 2-6 via B1; reading uncertain
# B9: peptide 30 (peptide)
# peptide: Suc-ACYLACIDELIKKAQEQQEKNEAALR-NH2
# modifications: linker 2-6 via B1; reading uncertain
# B10: Sifuvirtide-PBD (peptide)
# peptide: Ac-ENYTRQIYRILEESQEQQDRNERDLL-NH2
# B11: peptide 34 (peptide)
# peptide: Suc-ACYLACIEELIRKAQEQQEKNEAAL[dR]-NH2
# modifications: linker 2-6 via B1; reading uncertain
# B12: peptide 39 (peptide)
# peptide: Pentanoyl-ECYLACIEALIRAAQEQQEKNEAALR-NH2
# modifications: linker 2-6 via B21″
# SMILES: CCCCC(=O)N[C@@H](CCC(=O)O)C(=O)N[C@H]1CSCc2ccc3ccc(cc3c2)CSC[C@@H](C(=O)N[C@H](C(=O)N[C@@H](CCC(=O)O)C(=O)N[C@@H](C)C(=O)N[C@@H](CC(C)C)C(=O)N[C@H](C(=O)N[C@@H](CCCNC(=N)N)C(=O)N[C@@H](C)C(=O)N[C@@H](C)C(=O)N[C@@H](CCC(N)=O)C(=O)N[C@@H](CCC(=O)O)C(=O)N[C@@H](CCC(N)=O)C(=O)N[C@@H](CCC(N)=O)C(=O)N[C@@H](CCC(=O)O)C(=O)N[C@@H](CCCCN)C(=O)N[C@@H](CC(N)=O)C(=O)N[C@@H](CCC(=O)O)C(=O)N[C@@H](C)C(=O)N[C@@H](C)C(=O)N[C@@H](CC(C)C)C(=O)N[C@@H](CCCNC(=N)N)C(N)=O)[C@@H](C)CC)[C@@H](C)CC)NC(=O)[C@H](C)NC(=O)[C@H](CC(C)C)NC(=O)[C@H](Cc2ccc(O)cc2)NC1=O
# B13: peptide 29 (peptide)
# peptide: Suc-ECYLRCIEELIRKAQEQQEKNEAALR-NH2
# modifications: linker 2-6 via B1; reading uncertain
# B14: peptide 33 (peptide)
# peptide: Suc-ECYLACIEALIRAAQEQQEKNEAALR-NH2
# modifications: linker 2-6 via B1; reading uncertain
# B15: Sifuvirtide (peptide)
# peptide: Ac-SWETWEREIENYTRQIYRILEESQEQQDRNERDLLE-NH2
# B16: peptide 35 (peptide)
# peptide: Suc-ANYLALIEALIRAAQEQQEKNEAALRGSGC(cholesteryl‑oxycarbonylmethyl)-NH2
# SMILES: CC[C@H](C)[C@H](NC(=O)[C@H](CC(C)C)NC(=O)[C@H](C)NC(=O)[C@H](CCC(=O)O)NC(=O)[C@@H](NC(=O)[C@H](CC(C)C)NC(=O)[C@H](C)NC(=O)[C@H](CC(C)C)NC(=O)[C@H](Cc1ccc(O)cc1)NC(=O)[C@H](CC(N)=O)NC(=O)[C@H](C)NC(=O)CCC(=O)O)[C@@H](C)CC)C(=O)N[C@@H](CCCNC(=N)N)C(=O)N[C@@H](C)C(=O)N[C@@H](C)C(=O)N[C@@H](CCC(N)=O)C(=O)N[C@@H](CCC(=O)O)C(=O)N[C@@H](CCC(N)=O)C(=O)N[C@@H](CCC(N)=O)C(=O)N[C@@H](CCC(=O)O)C(=O)N[C@@H](CCCCN)C(=O)N[C@@H](CC(N)=O)C(=O)N[C@@H](CCC(=O)O)C(=O)N[C@@H](C)C(=O)N[C@@H](C)C(=O)N[C@@H](CC(C)C)C(=O)N[C@@H](CCCNC(=N)N)C(=O)NCC(=O)N[C@@H](CO)C(=O)NCC(=O)N[C@@H](CSCC(=O)O[C@H]1CC[C@@]2(C)C(=CC[C@H]3[C@@H]4CC[C@H]([C@H](C)CCCC(C)C)[C@@]4(C)CC[C@@H]32)C1)C(N)=O
# B17: peptide 28 (peptide)
# peptide: Suc-[hCys]YLA[hCys]IEALIRAAREQQEKNEALLR-NH2
# modifications: linker 1-5 via B1; reading uncertain
# B18: peptide 38 (peptide)
# peptide: Pentanoyl-ECYLACIEALIRAAQEQQEKNEAALR-NH2
# modifications: linker 2-6 via B1; reading uncertain
# B19: peptide 47 (peptide)
# peptide: Suc-ACYLACIEALIRA[Abu]QEQQEKNEAALR-NH2
# modifications: linker 2-6 via B1; reading uncertain
# B20: peptide 31 (peptide)
# peptide: Suc-ACYLACIEELIRKAQEQQEKNEAALR-NH2
# modifications: linker 2-6 via B1; not fully specified; reading uncertain
# B21: peptide 24 (peptide)
# peptide: Suc-CYLACIEELIRKAQEQQEKNEAAL[tBuAla]-NH2
# modifications: linker 1-5 via B1; reading uncertain
# B22: peptide 44 (peptide)
# peptide: Suc-ACY[Nva]ACIEALIRAAQEQQEKNEAALR-NH2
# modifications: linker 2-6 via B1; reading uncertain
# B23: peptide 43 (peptide)
# peptide: Suc-ACYLACIEALIRAAQEQQEKNEAALR-NH2
# modifications: linker 2-6 via B1; reading uncertain
# B24: peptide 27 (peptide)
# peptide: Suc-CYLACIEELIRKAQEQQEKNEAAL[tBuAla]-NH2
# modifications: linker 1-5 via B3; reading uncertain
# B25: peptide 41 (peptide)
# peptide: Pentanoyl-ECYLACIEELIRKAQEQQEKNEAALR-NH2
# modifications: linker 2-6 via B1; reading uncertain
# B26: peptide 45 (peptide)
# peptide: Ac-ECYLACIEALIRAAQEQQEKNEAALR-NH2
# modifications: linker 2-6 via B1; reading uncertain
# Molecular target: gp41 of HIV-1 strain HXB2D with mutation V38A (HIV-1 strain HXB2D, UniProt P04578)
# Test: cell-based or functional assay
# Conditions: not given
row,Molecule,"fold change in EC50, HIV-HXB2D V38A mutant"
1,B1,10 fold
2,B2,2 fold
3,B3,6 fold
4,B4,19 fold
5,B5,1 fold
6,B6,7 fold
7,B7,3 fold
8,B8,23 fold
9,B9,8 fold
10,B10,> 3 fold
11,B11,19 fold
12,B12,2 fold
13,B13,7 fold
14,B14,11 fold
15,B15,1 fold
16,B16,4 fold
17,B17,4 fold
18,B18,3 fold
19,B19,17 fold
20,B20,14 fold
21,B21,26 fold
22,B22,15 fold
23,B23,19 fold
24,B24,28 fold
25,B25,2 fold
26,B26,14 fold

# Test system: HIV wild type virus strain IIIB
# Test: Standard Anti-Viral-Experiment (AVE), HIV-1 replication assay in MT4-LTR-EGFP cells, wild type IIIB
# Assay type: cell-based
# Conditions: 3 days, EGFP signal
# Source text: • Standard Anti-Viral-Experiment “AVE” (wild type HIV strain IIIB+HIV strain HXB2D side directed mutants V38A and Q40H)
# The HIV-1 replication assay measures virus replication (HIV wild type virus strain 111B or HXB2D, or a HIV mutant virus strain HXB2D with mutation V38A or Q40H in the gp41 gene) as an induction of enhanced green fluorescent protein (EGFP) expression. The indicator MT4-LTR-EGFP cells contain an EGFP gene under the control of the HIV-1 LTR promoter sequence. Successful HIV-1 infection results in viral Tat protein expression and subsequent induction of EGFP expression. Compounds/peptides inhibiting HIV-1 infection are expected to reduce EGFP expression as compared to the untreated HIV-infected control.
# Serial 4-fold dilutions of test compounds/peptides were mixed with HIV-1 (IIIB, HXB2D, or a HXB2D mutant virus (V38A or Q40H)) and MT4-LTR-EGFP cells and incubated at 37° C. After 3 days, the wells were examined for EGFP expression using an argon laser-scanning microscope. The effective compound/peptide concentration inhibiting 50% of the virus-induced EGFP signal (EC50) was determined by linear interpolation of the EGFP signal vs. logarithm of the compound concentration; (T20, C34 and Sifuvirtide were added as reference compounds). For the V38A and Q40H mutant viruses, results were reported as a fold change in EC50, as compared with a drug-susceptible wild type strain HXB2D, which forms the backbone of the mutant virus. • Standard AVE (50% Human Serum)
row,Molecule,EC50
1,"NNYTSLIHSLIEESQNQQEKNEQELL [C34-PBD*, reference compound]",> 49.2 µM
